{
  "source": "paper PMC2377097",
  "about": "“Unc45b Forms a Cytosolic Complex with Hsp90 and Targets the Unfolded Myosin Motor Domain” (PLoS ONE, 2008)",
  "proteins": {"B1": {"name": "rabbit reticulocyte lysate Hsp90 (natural protein)", "chain": "not shown"}},
  "molecular_target": "the molecule itself",
  "assay": "SEC; Superose 6 HR 10/300, 50 mM Tris-HCl pH 7.4, 150 mM NaCl, 1 mM DTT; purified proteins run alone or as a complex formed from equimolar amounts",
  "data": [
    {"protein": "B1", "values": [
      {"measurement": "stoichiometry N", "value": 2}
    ]}
  ]
}
